From patent US20120071419A1 (POSTECH ACADEMY INDUSTRY FOUNDATION, published 2012)
Numbering of substitutions follows the chain as printed.

B1: wild type 1OZJ scaffold (B chain of 1OZJ, crystal structure of Smad3-MH1) (other, human, UniProt P84022 1-144, looked up)
chain: MSSILPFTPPIVKRLLGWKKGEQNGQEEKWCEKAVKSLVKKLKKTGQLDELEKAITTQNVNTKCITIPRSLDGRLQVSHRKGLPHVIYCRLWRWPDLHSHHELRAMELCEFAFNMKKDEVCVNPYHYQRVETPVLPPVLVPRHT
notes: domain: Smad3-MH1; 6; also called WT
B2: clone 8 of the 1OZJ scaffold (designed binder)
chain: B1 chain with K44G, E107P, E110N, N114T, D118P
notes: domain: Smad3-MH1
B3: clone 31 of the 1OZJ scaffold (designed binder)
chain: B1 chain with K44G, E107H, E110P, N114K, D118W
notes: domain: Smad3-MH1
B4: clone 53 of the 1OZJ scaffold (designed binder)
chain: B1 chain with K44A, E107S, E110S, N114S, D118I
notes: domain: Smad3-MH1
B5: clone 6 of the 1OZJ scaffold (designed binder)
chain: B1 chain with K44S, E107G, E110S, D118L
B6: clone 9 of the 1OZJ scaffold (designed binder)
chain: B1 chain with K44A, E107Q, E110I, N114L, D118P
B7: clone 54 of the 1OZJ scaffold (designed binder)
chain: B1 chain with K44C, E107I, E110D, N114P, D118R
notes: domain: Smad3-MH1
B8: clone 43 of the 1OZJ scaffold (designed binder)
chain: B1 chain with K44R, E107H, E110N, N114G, D118A
notes: domain: Smad3-MH1
B9: clone 55 of the 1OZJ scaffold (designed binder)
chain: B1 chain with K44I, E107K, E110R, N114P
notes: domain: Smad3-MH1
B10: clone 7 of the 1OZJ scaffold (designed binder)
chain: B1 chain with K44L, E107A, E110A, N114M, D118C

What follows are binders tested against T1, EGFR (Epidermal Growth Factor Receptor) (human, UniProt P00533 26-444, limits assumed) (assay: phage ELISA, wells coated with 4 ug/ml EGFR, anti-M13-HRP, OD 650 nm).
T1 construct: also called EGF receptor
Method: (§1) Individual colonies were randomly selected from the output titration plate of the last round, and inoculated in 1 ml of super broth (3% tryptone, 2% yeast extract, 1% 3-[N-Morpholino] propanesulfonic acid [MOPS], pH 7.0). after overnight incubation at 37° C., the supernatant was used for phage ELISA (enzyme-linked immunosorbant assay). microtitration plate wells were coated with 4 μg/ml EGFR-containing PBS at 4° C. for one night, and blocked with 3% BSA-containing PBS at 37° C. for 1 hour. The plate was cultured with the phage-containing supernatant at 37° C. for 2 hours, and washed with 0.05% Tween-20-containing PBS (PBST) three times. Thereafter, HRP (horseradish peroxidase)-conjugated anti-M13 antibody (Sigma) diluted in a blocking buffer solution (1:2000) was added thereto and cultured at 37° C. for 1 hour. 50 μl of TMB substrate solution (Pierce, Rockford, Ill.) was added to each well, and OD was measured at 650 nm.

binding result	Binder
no binding	B1

What follows are binders tested against T1, EGFR (Epidermal Growth Factor Receptor) (assay: phage ELISA, wells coated with 4 ug/ml EGFR, anti-M13-HRP).
Method: as §1

OD at 650 nm [OD]	Binder
0.086	B1
1.18	B2
0.959	B3
1.02	B4
1.83	B5
1.75	B6
1.16	B7
0.919	B8
0.964	B9
1.74	B10
